# In patent US20220135638A1 (Takeda / Millennium, published 2022):
# Numbered stars: 1 amine (or outer) side, 2 acyl side, 3 side chain; on linkers, the order of the positions; unused ones are H or OH. Square brackets hold non-standard residues; d marks the D form. Primed or numbered codes have the meaning given here. Side chains are listed from the residue outwards. Ends that are not written are not given here. * marks the point of attachment. C20 diacid = O=C(O)CCCCCCCCCCCCCCCCCCC(=O)*; C16 diacid = O=C(O)CCCCCCCCCCCCCCC(=O)*; γGlu = O=C(O)[C@H](CCC(=O)[*:2])N[*:1]; Iva = CC[C@](C)(N)C(=O)O; PEG3′ = not defined here; Aib = CC(C)(N)C(=O)O
# B1: Compound No. 480 (peptide)
# peptide: Y[Aib]EGTFISDYSIALDR[Aib]HQ[Aib]NFVNW[Iva]LAQRPSSGAPPPK([PEG3′-PEG3′-γGlu-Ida])
# modifications: ends and bridges not checked
# B2: Compound No. 469 (peptide)
# peptide: Y[Aib]EGTFISDYSIALDR[Aib]HQ[Aib]NFVNW[Iva]LAQRKSSGAPPPS
# modifications: not fully specified (residue 31); ends and bridges not checked
# B3: Compound No. 499 (peptide)
# peptide: Y[Aib]EGTFISDYSIALDR[Aib]HQ[Aib]NFVNW[Iva]LAQRPSSGK([PEG3′-PEG3′-γGlu-C20 diacid])PPPS
# modifications: ends and bridges not checked
# B4: Compound No. 485 (peptide)
# peptide: Y[Aib]EGTFISDYSIALDR[Aib]HQ[Aib]NFVNW[Iva]LAQRK([PEG3′-PEG3′-γGlu-C16 diacid])SSGAPPPS
# modifications: ends and bridges not checked
# B5: Compound No. 477 (peptide)
# peptide: Y[Aib]EGTFISDYSIALDR[Aib]HQ[Aib]NFVNW[Iva]LAQRPSSGAPPK([PEG3′-PEG3′-γGlu-Ida])S
# modifications: ends and bridges not checked
# B6: Compound No. 468 (peptide)
# peptide: Y[Aib]EGTFISDYSIALDR[Aib]HQ[Aib]NFVNW[Iva]LAQRKSSGAPPPS
# modifications: not fully specified (residue 31); ends and bridges not checked
# B7: Compound No. 494 (peptide)
# peptide: Y[Aib]EGTFISDYSIALDR[Aib]HQ[Aib]NFVNW[Iva]LAQRPSSK([PEG3′-PEG3′-γGlu-C16 diacid])APPPS
# modifications: ends and bridges not checked
# B8: Compound No. 479 (peptide)
# peptide: Y[Aib]EGTFISDYSIALDR[Aib]HQ[Aib]NFVNW[Iva]LAQRPSSGAPPPK([PEG3′-PEG3′-γGlu-C16 diacid])
# modifications: ends and bridges not checked
# B9: Compound No. 493 (peptide)
# peptide: Y[Aib]EGTFISDYSIALDR[Aib]HQ[Aib]NFVNW[Iva]LAQRPSK([PEG3′-PEG3′-γGlu-C20 diacid])GAPPPS
# modifications: ends and bridges not checked
# B10: Compound No. 470 (peptide)
# peptide: Y[Aib]EGTFISDYSIALDR[Aib]HQ[Aib]NFVNW[Iva]LAQRKSSGAPPPS
# modifications: not fully specified (residue 31); ends and bridges not checked
# B11: Compound No. 476 (peptide)
# peptide: Y[Aib]EGTFISDYSIALDR[Aib]HQ[Aib]NFVNW[Iva]LAQRPSSGAPPK([PEG3′-PEG3′-γGlu-C16 diacid])S
# modifications: ends and bridges not checked
# B12: Compound No. 496 (peptide)
# peptide: Y[Aib]EGTFISDYSIALDR[Aib]HQ[Aib]NFVNW[Iva]LAQRPSSK([PEG3′-PEG3′-γGlu-C20 diacid])APPPS
# modifications: ends and bridges not checked
# B13: Compound No. 478 (peptide)
# peptide: Y[Aib]EGTFISDYSIALDR[Aib]HQ[Aib]NFVNW[Iva]LAQRPSSGAPPK([PEG3′-PEG3′-γGlu-C20 diacid])S
# modifications: ends and bridges not checked
# B14: Compound No. 489 (peptide)
# peptide: Y[Aib]EGTFISDYSIALDR[Aib]HQ[Aib]NFVNW[Iva]LAQRPK([PEG3′-PEG3′-γGlu-Ida])SGAPPPS
# modifications: ends and bridges not checked
# B15: Compound No. 486 (peptide)
# peptide: Y[Aib]EGTFISDYSIALDR[Aib]HQ[Aib]NFVNW[Iva]LAQRK([PEG3′-PEG3′-γGlu-Ida])SSGAPPPS
# modifications: ends and bridges not checked
# B16: Compound No. 495 (peptide)
# peptide: Y[Aib]EGTFISDYSIALDR[Aib]HQ[Aib]NFVNW[Iva]LAQRPSSK([PEG3′-PEG3′-γGlu-Ida])APPPS
# modifications: ends and bridges not checked
# B17: Compound No. 481 (peptide)
# peptide: Y[Aib]EGTFISDYSIALDR[Aib]HQ[Aib]NFVNW[Iva]LAQRPSSGAPPPK([PEG3′-PEG3′-γGlu-C20 diacid])
# modifications: ends and bridges not checked
# B18: Compound No. 490 (peptide)
# peptide: Y[Aib]EGTFISDYSIALDR[Aib]HQ[Aib]NFVNW[Iva]LAQRPK([PEG3′-PEG3′-γGlu-C20 diacid])SGAPPPS
# modifications: ends and bridges not checked
# B19: Compound No. 491 (peptide)
# peptide: Y[Aib]EGTFISDYSIALDR[Aib]HQ[Aib]NFVNW[Iva]LAQRPSK([PEG3′-PEG3′-γGlu-C16 diacid])GAPPPS
# modifications: ends and bridges not checked
# B20: Compound No. 487 (peptide)
# peptide: Y[Aib]EGTFISDYSIALDR[Aib]HQ[Aib]NFVNW[Iva]LAQRK([PEG3′-PEG3′-γGlu-C20 diacid])SSGAPPPS
# modifications: ends and bridges not checked
# B21: Compound No. 464 (peptide)
# peptide: Y[Aib]EGTFISDYSIALDR[Aib]HQ[Aib]NFVNW[Iva]LAQRPSSGAPPPK([Gly-Gly-Gly-Gly-Gly-γGlu-C20 diacid])
# modifications: ends and bridges not checked
# B22: Compound No. 498 (peptide)
# peptide: Y[Aib]EGTFISDYSIALDR[Aib]HQ[Aib]NFVNW[Iva]LAQRPSSGK([PEG3′-PEG3′-γGlu-Ida])PPPS
# modifications: ends and bridges not checked
# B23: Compound No. 492 (peptide)
# peptide: Y[Aib]EGTFISDYSIALDR[Aib]HQ[Aib]NFVNW[Iva]LAQRPSK([PEG3′-PEG3′-γGlu-Ida])GAPPPS
# modifications: ends and bridges not checked
# B24: Compound No. 497 (peptide)
# peptide: Y[Aib]EGTFISDYSIALDR[Aib]HQ[Aib]NFVNW[Iva]LAQRPSSGK([PEG3′-PEG3′-γGlu-C16 diacid])PPPS
# modifications: ends and bridges not checked
# B25: Compound No. 488 (peptide)
# peptide: Y[Aib]EGTFISDYSIALDR[Aib]HQ[Aib]NFVNW[Iva]LAQRPK([PEG3′-PEG3′-γGlu-C16 diacid])SGAPPPS
# modifications: ends and bridges not checked
# Target: T1, full-length human GIPR (GenBank NM_000164) with an N-terminal FLAG tag on HEK-293T cells (human), P48546
# T1 chain: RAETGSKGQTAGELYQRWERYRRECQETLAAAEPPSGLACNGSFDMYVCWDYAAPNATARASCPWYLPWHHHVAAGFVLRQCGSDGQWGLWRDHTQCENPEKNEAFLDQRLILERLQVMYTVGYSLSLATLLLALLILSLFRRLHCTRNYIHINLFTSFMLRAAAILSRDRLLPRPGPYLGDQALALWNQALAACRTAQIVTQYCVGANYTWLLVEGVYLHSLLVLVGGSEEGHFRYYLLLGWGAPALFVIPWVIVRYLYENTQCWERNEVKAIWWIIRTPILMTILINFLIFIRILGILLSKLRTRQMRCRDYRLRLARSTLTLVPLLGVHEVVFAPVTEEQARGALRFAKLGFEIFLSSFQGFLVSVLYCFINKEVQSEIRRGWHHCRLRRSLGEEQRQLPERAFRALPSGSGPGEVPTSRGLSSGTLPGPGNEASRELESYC
# Assay: cell-based or functional assay
row,Binder,GIP EC50(pM)
1,B1,0.5
2,B2,0.62
3,B3,1.17
4,B4,0.28
5,B5,0.64
6,B6,0.44
7,B7,0.5
8,B8,0.42
9,B9,1.22
10,B10,1.12
11,B11,0.74
12,B12,1.09
13,B13,1.36
14,B14,0.96
15,B15,0.7
16,B16,0.86
17,B17,0.61
18,B18,1.88
19,B19,0.7
20,B20,1.38
21,B21,1.29
22,B22,0.6
23,B23,1.22
24,B24,0.4
25,B25,0.75

# Target: T2, full-length human GLP-1R (GenBank NM_002062) with an N-terminal FLAG tag on HEK-293T cells (human), P43220
# T2 chain: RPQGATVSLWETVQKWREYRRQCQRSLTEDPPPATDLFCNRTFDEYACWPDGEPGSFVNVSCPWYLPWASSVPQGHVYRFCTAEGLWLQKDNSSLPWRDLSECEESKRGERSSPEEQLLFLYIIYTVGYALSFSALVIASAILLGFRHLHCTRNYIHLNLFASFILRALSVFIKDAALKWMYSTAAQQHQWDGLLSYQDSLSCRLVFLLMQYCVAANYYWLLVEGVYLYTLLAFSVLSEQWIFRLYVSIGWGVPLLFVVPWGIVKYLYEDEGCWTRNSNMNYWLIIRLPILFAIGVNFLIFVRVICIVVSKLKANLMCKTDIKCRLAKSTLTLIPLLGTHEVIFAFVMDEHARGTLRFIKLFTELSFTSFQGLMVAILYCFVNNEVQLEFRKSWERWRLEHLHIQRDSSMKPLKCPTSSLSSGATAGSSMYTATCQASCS
# Assay: cell-based or functional assay
row,Binder,GLP EC50 [nM]
1,B1,> 1000
2,B2,> 1000
3,B3,> 1000
4,B4,> 1000
5,B5,> 1000
6,B6,> 1000
7,B7,> 1000
8,B8,> 1000
9,B9,> 1000
10,B10,> 1000
11,B11,> 1000
12,B12,> 1000
13,B13,> 1000
14,B14,> 1000
15,B15,> 1000
16,B16,> 1000
17,B17,> 1000
18,B18,> 1000
19,B19,> 1000
20,B20,> 1000
21,B21,977
22,B22,> 1000
23,B23,> 1000
24,B24,> 1000
25,B25,> 1000
